Measurements published in patent publication US20240228648A1 (JIANGSU KANION PHARMACEUTICAL, published 2024).
Values belong to the binder of their own block, whether it stands above or below them.

Key:
[1] = target: T1, CD38 on the surface of Daudi cells (human, UniProt P28907 1-300); assay: cell-based or functional assay
[2] = target: T1, CD38 on the surface of Daudi cells; assay: flow cytometry on Daudi cells, anti-human IgG-Alexa647, fit in GraphPad Prism
Method: Daudi cells were washed twice with PBS and incubated for 1 hour on ice with serially diluted antibodies in FACS buffer (PBS containing 2% FBS) as indicated in table 2. Cells were washed three times with PBS and incubated with 1:200 diluted anti-human IgG-Alexa647 in FACS buffer for 30 min at 4° C. in darkness. After three times wash with PBS, cells were analyzed using flowcytometer.

[3] = target: T2, recombinant biotinylated CD38-avi protein (extracellular domain of human CD38) (human, UniProt P28907 43-300, biotinylated (avi tag)); assay: capture ELISA: antibody captured by anti-human Fc, biotinylated CD38-avi 0.5 ug/ml, fit in GraphPad Prism
T2 construct: Bought from ACRO biosystems; also called CD38 recombinant protein; not shown: avi tag
Method: After 6 washes, plate was incubated with 1:1000 diluted streptavidin-HRP (BD Bioscience) in PBS™ at RT for 30 min.

- CDC IC50 on Daudi cells (ratio of live P1 cells, 7AAD flow cytometry) [1]: 9.8 nM
- maximal ADCC activity on Daudi cells relative to Darzalex (Jurkat effector, luciferase) [1]: 1.4 fold
- Kd [2]: 3.1 nM
- Kd [3]: 0.082 nM
B1: IgG418 full antibody (antibody, V domains shown)
VH: QVQLQQSGPGLVKPSQTLSLTCAISGGSVSSNSAAWNWIRQSPSRGLEWLGRTYYRSKWYNDYAVSVKSRITINPDTSKNQFSLQLNSVTPEDTAVYYCARDALAAAGTYGYYYYYGMDVWGQGTMVTVSS
VL: QSALTQPASVSGSPGQSITISCTGTSSDVGGYNYVSWYQQHPGKAPKLVIYEGTQRPSGVSSRFSGSKSGNTASLTISGLQAEDEADYYCSSYTSSSFYVFGTGTKLTVLG
notes: also called IgG418 WT; IgG418-WT

- ADCC IC50 on Daudi cells relative to Darzalex (Jurkat effector, luciferase) [1]: ~10 fold
- maximal ADCC activity on Daudi cells relative to Darzalex (Jurkat effector, luciferase) [1]: 1.6 fold
B2: afucosylated IgG418 (antibody, V domains shown)
VH: B1 VH
VL: B1 VL
modifications: afucosylated glycan (produced in FUT8 knockout CHO-K1 cells)
